The values below come from publication PMC11574045, “A cofactor-induced repressive type of transcription factor condensation can be induced by synthetic peptides to suppress tumorigenesis” (The EMBO Journal, 2024).

The labels stand for the following.
B1: ZBTB38 (protein, UniProt Q8NAP3 1-1195, looked up)
Zinc finger and BTB …: MTVMSLSRDLKDDFHSDTVLSILNEQRIRGILCDVTIIVEDTKFKAHSNVLAASSLYFKNIFWSHTICISSHVLELDDLKAEVFTEILNYIYSSTVVVKRQETVTDLAAAGKKLGISFLEDLTDRNFSNSPGPYVFCITEKGVVKEEKNEKRHEEPAITNGPRITNAFSIIETENSNNMFSPLDLRASFKKVSDSMRTASLCLERTDVCHEAEPVRTLAEHSYAVSSVAEAYRSQPVREHDGSSPGNTGKENCEALAAKPKTCRKPKTFSIPQDSDSATENIPPPPVSNLEVNQERSPQPAAVLTRSKSPNNEGDVHFSREDENQSSDVPGPPAAEVPPLVYNCSCCSKAFDSSTLLSAHMQLHKPTQEPLVCKYCNKQFTTLNRLDRHEQICMRSSHMPIPGGNQRFLENYPTIGQNGGSFTGPEPLLSENRIGEFSSTGSTLPDTDHMVKFVNGQMLYSCVVCKRSYVTLSSLRRHANVHSWRRTYPCHYCNKVFALAEYRTRHEIWHTGERRYQCIFCLETFMTYYILKNHQKSFHAIDHRLSISKKTANGGLKPSVYPYKLYRLLPMKCKRAPYKSYRNSSYENARENSQMNESAPGTYVVQNPHSSELPTLNFQDTVNTLTNSPAIPLETSACQDIPTSANVQNAEGTKWGEEALKMDLDNNFYSTEVSVSSTENAVSSDLRAGDVPVLSLSNSSENAASVISYSGSAPSVIVHSSQFSSVIMHSNAIAAMTSSNHRAFSDPAVSQSLKDDSKPEPDKVGRFASRPKSIKEKKKTTSHTRGEIPEESNYVADPGGSLSKTTNIAEETSKIETYIAKPALPGTSTNSNVAPLCQITVKIGNEAIVKRHILGSKLFYKRGRRPKYQMQEEPLPQGNDPEPSGDSPLGLCQSECMEMSEVFDDASDQDSTDKPWRPYYNYKPKKKSRQLKKMRKVNWRKEHGNRSPSHKCKYPAELDCAVGKAPQDKPFEEEETKEMPKLQCELCDGDKAVGAGNQGRPHRHLTSRPYACELCAKQFQSPSTLKMHMRCHTGEKPYQCKTCGRCFSVQGNLQKHERIHLGLKEFVCQYCNKAFTLNETLKIHERIHTGEKRYHCQFCFQRFLYLSTKRNHEQRHIREHNGKGYACFQCPKICKTAAALGMHQKKHLFKSPSQQEKIGDVCHENSNPLENQHFIGSEDNDQKDNIQTGVENVVL
B2: ZBTB43 (protein, UniProt O43298 1-467, looked up)
Zinc finger and BTB …: MEPGTNSFRVEFPDFSSTILQKLNQQRQQGQLCDVSIVVQGHIFRAHKAVLAASSPYFCDQVLLKNSRRIVLPDVMNPRVFENILLSSYTGRLVMPAPEIVSYLTAASFLQMWHVVDKCTEVLEGNPTVLCQKLNHGSDHQSPSSSSYNGLVESFELGSGGHTDFPKAQELRDGENEEESTKDELSSQLTEHEYLPSNSSTEHDRLSTEMASQDGEEGASDSAEFHYTRPMYSKPSIMAHKRWIHVKPERLEQACEGMDVHATYDEHQVTESINTVQTEHTVQPSGVEEDFHIGEKKVEAEFDEQADESNYDEQVDFYGSSMEEFSGERSDGNLIGHRQEAALAAGYSENIEMVTGIKEEASHLGFSATDKLYPCQCGKSFTHKSQRDRHMSMHLGLRPYGCGVCGKKFKMKHHLVGHMKIHTGIKPYECNICAKRFMWRDSFHRHVTSCTKSYEAAKAEQNTTEAN
B3: ZBTB4 (protein, UniProt Q9P1Z0 1-1013, looked up)
Zinc finger and BTB …: MPPPAEVTDPSHAPAVLRQLNEQRLRGLFCDVTLIAGDTKFPAHRSVLAASSPFFREALLTSAPLPLPPATGGAAPNPATTTAASSSSSSSSSSSSSSSSASSSSSSSSSSPPPASPPASSPPRVLELPGVPAAAFSDVLNFIYSARLALPGGGGDGAAVAEIGALGRRLGISRLQGLGEGGDAWVPPTPAPMATSQPEEDSFGPGPRPAGEWEGDRAEAQAPDLQCSLPRRPLPCPQCGKSFIHPKRLQTHEAQCRRGASTRGSTGLGAGGAGPGGPAGVDASALPPPVGFRGGPEHVVKVVGGHVLYVCAACERSYVTLSSLKRHSNVHSWRRKYPCRYCEKVFALAEYRTKHEVWHTGERRYQCIFCWETFVTYYNLKTHQRAFHGISPGLLASEKTPNGGYKPKLNTLKLYRLLPMRAAKRPYKTYSQGAPEAPLSPTLNTPAPVAMPASPPPGPPPAPEPGPPPSVITFAHPAPSVIVHGGSSSGGGGSGTASTGGSQAASVITYTAPPRPPKKREYPPPPPEPAATPTSPATAVSPATAAGPAMATTTEEAKGRNPRAGRTLTYTAKPVGGIGGGGGPPTGAGRGPSQLQAPPPLCQITVRIGEEAIVKRRISETDLRPGELSGEEMEESEEDEEEEDEEEEEEDEEESKAGGEDQLWRPYYSYKPKRKAGAAGGASVGGSGLPRGRRPPRWRQKLERRSWEETPAAESPAGRARTERRHRCGDCAQTFTTLRKLRKHQEAHGGGSHSSRAGRRPSTRFTCPHCAKVCKTAAALSRHGQRHAAERPGGTPTPVIAYSKGSAGTRPGDVKEEAPQEMQVSSSSGEAGGGSTAAEEASETASLQDPIISGGEEPPVVASGGSYVYPPVQEFPLALIGGGREPGGGRGKSGSEGPVGAGEGDRMEGIGAAKVTFYPEPYPLVYGPQLLAAYPYNFSNLAALPVALNMVLPDEKGAGALPFLPGVFGYAVNPQAAPPAPPTPPPPTLPPPIPPKGEGERAGVERTQKGDVG
B4: ZBTB37 (protein, UniProt Q5TC79 1-503, looked up)
Zinc finger and BTB …: MEKGGNIQLEIPDFSNSVLSHLNQLRMQGRLCDIVVNVQGQAFRAHKVVLAASSPYFRDHMSLNEMSTVSISVIKNPTVFEQLLSFCYTGRICLQLADIISYLTAASFLQMQHIIDKCTQILEGIHFKINVAEVEAELSQTRTKHQERPPESHRVTPNLNRSLSPRHNTPKGNRRGQVSAVLDIRELSPPEESTSPQIIEPSSDVESREPILRINRAGQWYVETGVADRGGRSDDEVRVLGAVHIKTENLEEWLGPENQPSGEDGSSAEEVTAMVIDTTGHGSVGQENYTLGSSGAKVARPTSSEVDRFSPSGSVVPLTERHRARSESPGRMDEPKQPSSQVEESAMMGVSGYVEYLREQEVSERWFRYNPRLTCIYCAKSFNQKGSLDRHMRLHMGITPFVCRMCGKKYTRKDQLEYHIRKHTGNKPFHCHVCGKSFPFQAILNQHFRKNHPGCIPLEGPHSISPETTVTSRGQAEEESPSQEETVAPGEAVQGSVSTTGPD
B5: ZBTB21 (protein, UniProt Q9ULJ3 1-1066, looked up)
Zinc finger and BTB …: MEGLLHYINPAHAISLLSALNEERLKGQLCDVLLIVGDQKFRAHKNVLAASSEYFQSLFTNKENESQTVFQLDFCEPDAFDNVLNYIYSSSLFVEKSSLAAVQELGYSLGISFLTNIVSKTPQAPFPTCPNRKKVFVEDDENSSQKRSVIVCQSRNEAQGKTVSQNQPDVSHTSRPSPSIAVKANTNKPHVPKPIEPLHNLSLTEKSWPKDSSVVYAKSLEHSGSLDDPNRISLVKRNAVLPSKPLQDREAMDDKPGVSGQLPKGKALELALKRPRPPVLSVCSSSETPYLLKETNKGNGQGEDRNLLYYSKLGLVIPSSGSGSGNQSIDRSGPLVKSLLRRSLSMDSQVPVYSPSIDLKSSQGSSSVSSDAPGNVLCALSQKSSLKDCSEKTALDDRPQVLQPHRLRSFSASQSTDREGASPVTEVRIKTEPSSPLSDPSDIIRVTVGDAATTAAASSSSVTRDLSLKTEDDQKDMSRLPAKRRFQADRRLPFKKLKVNEHGSPVSEDNFEEGSSPTLLDADFPDSDLNKDEFGELEGTRPNKKFKCKHCLKIFRSTAGLHRHVNMYHNPEKPYACDICHKRFHTNFKVWTHCQTQHGIVKNPSPASSSHAVLDEKFQRKLIDIVREREIKKALIIKLRRGKPGFQGQSSSQAQQVIKRNLRSRAKGAYICTYCGKAYRFLSQFKQHIKMHPGEKPLGVNKVAKPKEHAPLASPVENKEVYQCRLCNAKLSSLLEQGSHERLCRNAAVCPYCSLRFFSPELKQEHESKCEYKKLTCLECMRTFKSSFSIWRHQVEVHNQNNMAPTENFSLPVLDHNGDVTGSSRPQSQPEPNKVNHIVTTKDDNVFSDSSEQVNFDSEDSSCLPEDLSLSKQLKIQVKEEPVEEAEEEAPEASTAPKEAGPSKEASLWPCEKCGKMFTVHKQLERHQELLCSVKPFICHVCNKAFRTNFRLWSHFQSHMSQASEESAHKESEVCPVPTNSPSPPPLPPPPPLPKIQPLEPDSPTGLSENPTPATEKLFVPQESDTLFYHAPPLSAITFKRQFMCKLCHRTFKTAFSLWSHEQTHN
B6: ZBTB26 (protein, UniProt Q9HCK0 1-441, looked up)
Zinc finger and BTB …: MSERSDLLHFKFENYGDSMLQKMNKLREENKFCDVTVLIDDIEVQGHKIVFAAGSPFLRDQFLLNDSREVKISILQSSEVGRQLLLSCYSGVLEFPEMELVNYLTAASFLQMSHIVERCTQALWKFIKPKQPMDSKEGCEPQSASPQSKEQQGDARGSPKQDSPCIHPSEDSMDMEDSDIQIVKVESIGDVSEVRSKKDQNQFISSEPTALHSSEPQHSLINSTVENRVSEIEQNHLHNYALSYTGSDNIIMASKDVFGPNIRGVDKGLQWHHQCPKCTRVFRHLENYANHLKMHKLFMCLLCGKTFTQKGNLHRHMRVHAGIKPFQCKICGKTFSQKCSLQDHLNLHSGDKPHKCNYCDMVFAHKPVLRKHLKQLHGKNSFDNANERNVQDLTVDFDSFACTTVTDSKGCQPQPDATQVLDAGKLAQAVLNLRNDSTCVN
B7: ZBTB44 (protein, UniProt Q8NCP5 1-570, looked up)
Zinc finger and BTB …: MGVKTFTHSSSSHSQEMLGKLNMLRNDGHFCDITIRVQDKIFRAHKVVLAACSDFFRTKLVGQAEDENKNVLDLHHVTVTGFIPLLEYAYTATLSINTENIIDVLAAASYMQMFSVASTCSEFMKSSILWNTPNSQPEKGLDAGQENNSNCNFTSRDGSISPVSSECSVVERTIPVCRESRRKRKSYIVMSPESPVKCGTQTSSPQVLNSSASYSENRNQPVDSSLAFPWTFPFGIDRRIQPEKVKQAENTRTLELPGPSETGRRMADYVTCESTKTTLPLGTEEDVRVKVERLSDEEVHEEVSQPVSASQSSLSDQQTVPGSEQVQEDLLISPQSSSIGSVDEGVSEGLPTLQSTSSTNAPPDDDDRLENVQYPYQLYIAPSTSSTERPSPNGPDRPFQCPTCGVRFTRIQNLKQHMLIHSGIKPFQCDRCGKKFTRAYSLKMHRLKHEGKRCFRCQICSATFTSFGEYKHHMRVSRHIIRKPRIYECKTCGAMFTNSGNLIVHLRSLNHEASELANYFQSSDFLVPDYLNQEQEETLVQYDLGEHGFESNSSVQMPVISQYHSKGKEP

The experiment deals with HEK293FT cells transfected with TF library. The experiment can be described thus: Screening of TF condensates based on fluorescent puncta. The format is cell-based. The note with it: Figure 1B numerical data; TF library screen, one value per transcriptional factor. In a few lines: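 Puncta scoring used automated confocal imaging of fifty random fields per well, after anti-Flag or anti-GAL4 immunofluorescence (Alexa 488) in PFA-fixed cells. HEK293FT cells carried TF library plasmids delivered with PEI (1.6 μg/ml DNA). At 60 h they were switched for 12 h to glucose-containing or glucose-free medium.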
Consider B1, for which the “Z score of condensed fraction” value was -1.284.

As for B2, the “Z score of condensed fraction” value was determined as 0.02104.

Regarding B3, the “Z score of condensed fraction” value came to 1.258.

As to B4, the “Z score of condensed fraction” value came to 0.3942.

Regarding B5, the “Z score of condensed fraction” value is reported as -0.7871.

Regarding B6, the “Z score of condensed fraction” value is reported as 0.2152.

Take B7: the “Z score of condensed fraction” value is -0.608.
